Results published in patent US20260109761A1 (IP2IPO INNOVATIONS, published 2026).

How the values were obtained:
Assay in all cases: peptide-array ELISA on mimics of the human ZIP12 ECD (peroxidase conjugate, ABTS, CCD read-out); antibody concentration of this value not given
[1] = target: T1, LIN15 34-48 SEQ ID No: 223
T1 peptide: SRSRGSSGQPADLLQ
Experimental: (§1) The binding of antibody to each of the synthesized peptides was tested in a peptide-based ELISA. The peptide arrays were incubated with primary antibody solution (overnight at 4° C.). After washing, the peptide arrays were incubated with a 1/1000 dilution of an appropriate antibody peroxidase conjugate for one hour at 25° C. After washing, the peroxidase substrate 2,2′-azino-di-3-ethylbenzthiazoline sulfonate (ABTS) and […] of 3 percent H2O2 were added. After one hour, the colour development was measured. The colour development was quantified with a charge coupled device—camera and an image processing system.

[2] = target: T2, LOOP15 37-51 SEQ ID No: 240
T2 construct: constrained mimic
T2 peptide: CRGSSGQPADLLQVC
Experimental: as §1

[3] = target: T3, LOOP15 35-49 SEQ ID No: 238
T3 construct: constrained mimic
T3 peptide: CRSRGSSGQPADLLC
Experimental: as §1

[4] = target: T4, HEL19 31-49 SEQ ID No: 241
T4 construct: alpha-helical mimic
T4 peptide: CAQDCRSRGSSGQPADLLQ
Experimental: as §1

[5] = target: T5, HEL19 32-50 SEQ ID No: 242
T5 construct: alpha-helical mimic
T5 peptide: CQDSCSRGSSGQPADLLQV
Experimental: as §1

[6] = target: T6, BETA22 31-52 SEQ ID No: 248 (not fully specified)
T6 construct: beta-turn mimic
T6 peptide: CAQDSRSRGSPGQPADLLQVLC
Experimental: as §1

[7] = target: T7, LIN15 35-49 SEQ ID No: 224
T7 peptide: RSRGSSGQPADLLQV
Experimental: as §1

[8] = target: T8, HEL19 37-55 SEQ ID No: 244
T8 construct: alpha-helical mimic
T8 peptide: CRGSCGQPADLLQVLSAGD
Experimental: as §1

[9] = target: T9, HEL19 38-56 SEQ ID No: 245
T9 construct: alpha-helical mimic
T9 peptide: CGSSCQPADLLQVLSAGDH
Experimental: as §1

value [1]: 1650
value [2]: 1830
value [3]: 901
value [4]: 1700
value [5]: 2140
value [6]: 2440
value [7]: 2460
value [8]: 2760
value [9]: 828
B1: H3_W99H_L1 (antibody, V domains shown)
VH: QVQLVESGGGVVQPGRSLRLSCAASGFTFSDYGMHWVRQAPGKGLEWVAYISSGGTTIYYADTVKGRFTISRDNSKNTLYLQMNSLRAEDTAVYYCARHTNLYAMDYWGQGTTVTVSS
VL: DIVLTQSPDSLAVSLGERATINCRASKSVSTQGYSYMHWYQQKPGQPPKFLIYLASNLESGVPDRFSGSGSGTDFTLTISSLQAEDVAVYYCQHSREVPYTFGGGTKVEIKR
notes: Fc null human IgG1 / human kappa
